Assays:
Assay in all cases: ELISA
Conditions in all cases: both partners purified
[1] = target: Pfs48/45 D1-2 (N28-K289) (Plasmodium falciparum 3D7, UniProt Q8I6T1)
[2] = target: Pfs48/45 D2-3 (H184-A428) (Plasmodium falciparum 3D7, UniProt Q8I6T1)
[3] = target: Pfs48/45 D3 (K287-A428) (Plasmodium falciparum 3D7, UniProt Q8I6T1)
Chain of Pfs48/45 D3 (K287-A428) (Q8I6T1 whole entry, looked up): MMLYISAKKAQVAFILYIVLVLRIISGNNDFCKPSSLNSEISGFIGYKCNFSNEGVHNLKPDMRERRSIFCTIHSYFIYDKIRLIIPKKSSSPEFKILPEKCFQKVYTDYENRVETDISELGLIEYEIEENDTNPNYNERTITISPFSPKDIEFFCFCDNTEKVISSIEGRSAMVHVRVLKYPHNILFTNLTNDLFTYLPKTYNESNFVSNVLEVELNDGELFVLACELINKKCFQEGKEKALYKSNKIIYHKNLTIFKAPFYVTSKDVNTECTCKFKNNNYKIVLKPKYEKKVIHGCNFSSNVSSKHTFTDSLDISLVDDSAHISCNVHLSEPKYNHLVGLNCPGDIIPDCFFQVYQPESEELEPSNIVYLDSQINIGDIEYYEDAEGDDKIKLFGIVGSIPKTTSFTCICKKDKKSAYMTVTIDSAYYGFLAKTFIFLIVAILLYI

Chain of Pfs48/45 D1-2 (N28-K289) (Q8I6T1 whole entry, looked up): as above
Chain of Pfs48/45 D2-3 (H184-A428) (Q8I6T1 whole entry, looked up): as above

B1: RUPA-160 (hIgG1) (antibody, V domains shown)
VH: QVQLVQSGAEVKKPGASVKASCKASGYTFDNFDIIWARQATGQGLEWMGWMNPNTGKKGYAQNLKDRVTMTRDSSISTAYLELSSLRSEDTAVYYCVRAVGSYYGSGGWFDPWGQGTLVTVSS
VL: QSVLTQPPSASGTPGQRVTIACSGSSSNIGGNNVKWYQQLPGTAPKLVIYNNDERPPGVPDRVSGSKSGTSASLAISGVQSEDEADYYCATWDDSMKREVFGGGTKLTVL
notes: IgG1; source: 293T cells, purified (Protein A), or produced as recombinant human IgG1 (GenScript)
B1: binds [1]; binds [2].

B2: RUPA-154 (hIgG1) (antibody, V domains shown)
VH: QVQLVQSGAEVRKPGASVKVSCRTSGYTFTDYYMHWVRQAPGEGLEWMGSINPKSGGTSYAERFQGRVTMTMETSVSTAYLDLSSLRSDDTAVYYCARLLYSRAVYYYGMDVWGQGTTVTVSS
VL: SYELTQPPSVSVAPGKTARITCGGKDLGSKSVHWYQQKPGQAPVLVIYYDNIRPSGIPERFSGSNSGNTATLTISRVEAGDEADYYCQVWDSSSDHYVFGRGAKVTVL
notes: as for B1
B2: binds [1]; binds [2]; binds [3].

B3: RUPA-25 (hIgG1) (antibody, V domains shown)
VH: QVQLVQSGAEVKKPGASVKVSCTASGYNFLTHDISWVRQATGQGLEWMGWMNPNTGKKGYVQKFQGRVTMDRDMSKSTAYMELRSLTSEDTAVYYCVRGVGSYYGSGGWFDPWGQGTLVTVSS
VL: QPVLTQPPSASETPGQKVTISCSGSSSNIGSDTVSWYVQLPGTAPKLLIYNDNQRPSGVPDRFSGSKSGTSASLAISGLQSEDEADYYCATWDASLKRRVFGGGTTLTVL
notes: as for B1
B3: binds [1]; binds [2].

— publication PMC9942873 (Immunity, 2023)
